Measured values: US20250051465A1 (published 2025)

Assays:
[1] = molecular target: T1, human LEPR extracellular domain expressed with a C-terminal myc-myc-hexahistidine tag (hLEPR.mmh) (human, UniProt P48357 22-839); experiment: SPR, captured mAb, 37C
T1 construct: also called human LEPR-MMH; monomeric human LEPR
Protocol: (§1) Equilibrium dissociation constants (KD values) for LEPR binding to purified anti-LEPR monoclonal antibodies were determined using a real-time surface plasmon resonance biosensor using a Biacore 4000 instrument. All binding studies were performed in 10 mM HEPES, 150 mM NaCl, 3 mM EDTA, and 0.05% v/v Surfactant Tween-20, pH 7.4 (HBS-ET) running buffer at 25° C. and 37° C. The Biacore sensor surface was first derivatized by amine coupling with a monoclonal mouse anti-human Fc antibody (GE, #BR-1008-39) to capture anti-LEPR monoclonal antibodies. […] Kinetic association (kₐ) and dissociation (kd) rate constants were determined by fitting the real-time binding sensorgrams to a 1:1 binding model with mass transport limitation using Scrubber 2.0c curve-fitting software. Binding dissociation equilibrium constants (KD) and dissociative half-lives (t½) were calculated from the kinetic rate constants as: […]

[2] = molecular target: T2, Macaca fascicularis LEPR extracellular domain expressed with a C-terminal myc-myc-hexahistidine tag … (Macaca fascicularis, UniProt Q9MYL0 22-837 (rhesus entry)); experiment: SPR, captured mAb, 37C
T2 construct: also called mfLEP.MMH
Protocol: as §1

[3] = molecular target: T3, human LEPR extracellular domain expressed with a C-terminal mouse IgG2a Fc tag (hLEPR.mFc) (human); experiment: SPR, captured mAb, 37C
T3 construct: also called dimeric human LEPR
T3 chain: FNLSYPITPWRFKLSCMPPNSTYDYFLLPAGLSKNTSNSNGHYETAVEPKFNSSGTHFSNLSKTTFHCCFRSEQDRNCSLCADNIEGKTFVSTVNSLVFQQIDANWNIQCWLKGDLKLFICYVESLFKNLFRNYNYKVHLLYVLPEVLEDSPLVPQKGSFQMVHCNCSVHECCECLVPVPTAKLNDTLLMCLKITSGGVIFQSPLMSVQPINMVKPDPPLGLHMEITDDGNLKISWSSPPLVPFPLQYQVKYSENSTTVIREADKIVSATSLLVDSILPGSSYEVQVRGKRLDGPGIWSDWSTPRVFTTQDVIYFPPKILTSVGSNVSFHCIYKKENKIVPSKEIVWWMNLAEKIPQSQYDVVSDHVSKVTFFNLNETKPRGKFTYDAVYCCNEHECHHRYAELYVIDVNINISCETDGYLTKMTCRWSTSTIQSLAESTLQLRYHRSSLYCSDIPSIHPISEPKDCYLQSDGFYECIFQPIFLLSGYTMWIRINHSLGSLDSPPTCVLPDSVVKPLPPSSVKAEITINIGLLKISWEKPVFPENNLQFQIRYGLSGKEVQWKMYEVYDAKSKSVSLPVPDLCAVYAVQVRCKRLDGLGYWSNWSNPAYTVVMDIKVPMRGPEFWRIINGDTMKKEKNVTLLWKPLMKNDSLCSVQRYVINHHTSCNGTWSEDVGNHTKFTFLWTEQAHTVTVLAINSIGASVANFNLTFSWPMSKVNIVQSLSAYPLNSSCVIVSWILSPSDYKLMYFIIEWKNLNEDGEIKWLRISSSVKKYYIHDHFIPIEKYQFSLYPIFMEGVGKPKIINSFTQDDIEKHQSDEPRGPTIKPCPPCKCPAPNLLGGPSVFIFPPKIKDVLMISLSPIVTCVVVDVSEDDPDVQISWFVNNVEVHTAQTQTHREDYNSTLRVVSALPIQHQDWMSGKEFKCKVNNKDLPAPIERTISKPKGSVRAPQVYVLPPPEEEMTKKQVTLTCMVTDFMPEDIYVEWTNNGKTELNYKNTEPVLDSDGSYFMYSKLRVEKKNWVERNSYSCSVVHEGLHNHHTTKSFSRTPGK
Protocol: as §1

human LEPR CRH1 (D1)-MMH = molecular target: T4, human LEPR CRH1 (D1)-MMH (human, UniProt P48357 22-229, limits assumed); experiment: Luminex, myc-captured LEPR domain
T4 construct: domain: CRH1 (D1); Transiently expressed, captured from supernatant on anti-myc beads
Protocol: (§2) Aliquots of microspheres with immobilized anti-myc monoclonal antibodies, prepared as described above, were added individually to 1 mL of the each of these protein supernatants. The microspheres were gently mixed, incubated for two hours at 25° C., washed twice with 1 mL of DBPS, centrifuged to remove the supernatant and finally resuspended in 1 mL of DPBS buffer. Forty-eight μL of anti-myc IgG coupled microspheres from individual reactions with full length human LEPR and with each of the human LEPR domain proteins were withdrawn and mixed together in 3.6 mL of PBS+20 mg/mL BSA+0.05% sodium azide (blocking buffer).
(§3) From this mixed pool, 75 μL of microspheres were plated per well on a 96 well filter plate (Millipore, Cat. No: MSBVN1250) and mixed with 25 μL of individual anti-human LEPR monoclonal antibodies (0.5 or 5 µg/mL), incubated for two hours at 25° C. and then washed twice with 200 μL of DPBS with 0.05% Tween 20 (washing buffer). […] After 30 minutes, the samples were washed twice with 200 μL of washing buffer and resuspended in 150 μL of wash buffer. The Median Fluorescence intensity (MFI) of the microspheres was measured in a Luminex Analyzer.

[4] = molecular target: T5, human LEPR CRH1 (D1,D2)-MMH (human, UniProt P48357 22-339, limits assumed); experiment: Luminex, myc-captured LEPR domain
T5 construct: domain: CRH1 (D1,D2); Transiently expressed, captured from supernatant on anti-myc beads
Protocol: as §2, §3

[5] = molecular target: T6, human LEPR CRH1 (D1,D2,D3)-MMH (human, UniProt P48357 22-427, limits assumed); experiment: Luminex, myc-captured LEPR domain
T6 construct: domain: CRH1-Ig (D1,D2,D3); Transiently expressed, captured from supernatant on anti-myc beads; also called CRH1-Ig (D1, D2, D3)
Protocol: as §2, §3

human LEPR CRH2-MMH = molecular target: T7, human LEPR CRH2-MMH (human, UniProt P48357 428-634, limits assumed); experiment: Luminex, myc-captured LEPR domain
T7 construct: domain: CRH2; Transiently expressed, captured from supernatant on anti-myc beads
T7 sequence (P48357 other isoform, or with tags, fused parts or gaps limits assumed): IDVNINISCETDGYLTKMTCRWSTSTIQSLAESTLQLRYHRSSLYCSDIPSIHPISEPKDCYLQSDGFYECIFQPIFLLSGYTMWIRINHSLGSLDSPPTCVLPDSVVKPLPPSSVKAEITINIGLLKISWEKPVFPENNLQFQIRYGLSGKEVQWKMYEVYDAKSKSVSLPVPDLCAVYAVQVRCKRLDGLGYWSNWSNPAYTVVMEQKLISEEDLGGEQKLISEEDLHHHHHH
Protocol: as §2, §3

human LEPR FNIII-MMH = molecular target: T8, human LEPR FNIII-MMH (human, UniProt P48357 636-839, limits assumed); experiment: Luminex, myc-captured LEPR domain
T8 construct: domain: FNIII; Transiently expressed, captured from supernatant on anti-myc beads
T8 sequence (P48357 other isoform, or with tags, fused parts or gaps limits assumed): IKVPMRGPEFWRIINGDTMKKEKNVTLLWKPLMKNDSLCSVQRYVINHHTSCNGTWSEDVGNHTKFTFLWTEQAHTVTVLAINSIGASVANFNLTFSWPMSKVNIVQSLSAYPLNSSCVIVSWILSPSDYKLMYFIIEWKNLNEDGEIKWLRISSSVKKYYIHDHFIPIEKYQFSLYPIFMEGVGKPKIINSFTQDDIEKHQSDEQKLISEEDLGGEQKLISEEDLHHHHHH
Protocol: as §2, §3

B1: H4H17319P2 (antibody, human IgG4, V domains shown)
VH: QVQLVESGGSVVQPGRSLRLSCAASGFTFSTYAMYWVRQTPGKGLEWVAVLYSDGSNKYYIDSVKGRFTISRDTSTNTLYLQMSSLRADDSALYYCARLNWDYWYFDLWGRGTLVTVSS
VL: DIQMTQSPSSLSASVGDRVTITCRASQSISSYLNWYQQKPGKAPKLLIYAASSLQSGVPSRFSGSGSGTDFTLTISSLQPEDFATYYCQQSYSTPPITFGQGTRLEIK
notes: Fully human antibody with human IgG4 Fc (H4H prefix)
100 nM hLEPR-MMH Bound (RU) [1]: 44 RU | Kd [1]: 96.3 nM | koff [1]: 0.00341 s⁻¹ | kon [1]: 35400 M⁻¹ s⁻¹ | t½ [1]: 3.4 min | 100 nM mfLEPR.MMH Bound (RU) [2]: 113 RU | Kd [2]: 60.1 nM | koff [2]: 0.00324 s⁻¹ | kon [2]: 53900 M⁻¹ s⁻¹ | t½ [2]: 3.6 min | 100 nM hLEPR-mFc Bound (RU) [3]: 100 RU | Kd [3]: 7.66 nM | koff [3]: 0.000652 s⁻¹ | kon [3]: 85100 M⁻¹ s⁻¹ | t½ [3]: 18 min | MFI (human LEPR CRH1 (D1)-MMH): 8 MFI | MFI [4]: 1250 MFI | MFI [5]: 938 MFI | MFI (human LEPR CRH2-MMH): 91 MFI | MFI (human LEPR FNIII-MMH): 20 MFI
